According to PMC4067180:

Columns and labels:
[1] = biological target: tektin A (S. purpuratus (endogenous in sperm flagella)); test: co-sedimentation; Ribbons extracted with 0.5% Sarkosyl and urea (1-3 M; 1.75 M for the stoichiometry) in 10TEAD; the insoluble tektin filaments analysed by SDS-PAGE densitometry (Serva Blue) and immunoblotting
[2] = biological target: tektin B (S. purpuratus (endogenous in sperm flagella)); test: as above

Row | Substance | stoichiometry N [1] | stoichiometry N [2]
1 | tektin B (natural protein) | 1 | 
2 | tektin C (natural protein) | 1 | 1
